Test results from US20110201109.

Molecular target: Ronin (protein product of the cDNA clone from the human ES cell cDNA expression library) (UniProt Q96EK4)
Chain of UniProt Q96EK4 (Q96EK4 whole entry): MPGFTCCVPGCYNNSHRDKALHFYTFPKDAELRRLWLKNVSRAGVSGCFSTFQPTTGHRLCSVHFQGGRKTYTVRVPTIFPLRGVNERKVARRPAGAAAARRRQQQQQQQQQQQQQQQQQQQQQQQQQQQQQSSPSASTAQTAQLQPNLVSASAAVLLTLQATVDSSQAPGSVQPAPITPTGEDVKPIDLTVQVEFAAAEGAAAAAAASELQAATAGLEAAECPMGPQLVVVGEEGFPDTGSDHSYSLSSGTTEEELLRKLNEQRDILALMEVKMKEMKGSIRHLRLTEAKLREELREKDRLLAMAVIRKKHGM

Substance: Caspase-3 (as used in the in vitro transcription/translation Caspase-3 cleavage assay)
- in vitro transcription/translation Caspase-3 cleavage assay: proved to be an authentic target of Caspase-3 in further analyses
